Source: patent US7579150B1, “Mobile RNA acts as a signal to regulate plant growth and development” (Iowa State University Research Foundation, Inc., priority 2004, dated 2009)

Columns and labels:
POTH1 [1] = target: T1, POTH1 (Solanum tuberosum); experiment: cell_activity; details: tobacco protoplasts, GUS reporter
T1 chain: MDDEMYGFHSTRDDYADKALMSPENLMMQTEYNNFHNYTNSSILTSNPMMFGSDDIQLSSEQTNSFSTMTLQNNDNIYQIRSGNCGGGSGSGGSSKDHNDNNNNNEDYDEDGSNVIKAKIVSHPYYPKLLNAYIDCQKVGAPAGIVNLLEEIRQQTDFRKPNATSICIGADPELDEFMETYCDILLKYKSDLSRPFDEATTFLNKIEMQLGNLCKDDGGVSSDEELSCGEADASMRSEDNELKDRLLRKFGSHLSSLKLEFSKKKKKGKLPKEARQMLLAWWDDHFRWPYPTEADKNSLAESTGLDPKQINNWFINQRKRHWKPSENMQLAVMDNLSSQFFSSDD

[2] = target: T2, StBEL-05/POTH1 heterodimer (Solanum tuberosum); experiment: cell_activity; details: tobacco protoplasts, GUS reporter
T2 chain 1: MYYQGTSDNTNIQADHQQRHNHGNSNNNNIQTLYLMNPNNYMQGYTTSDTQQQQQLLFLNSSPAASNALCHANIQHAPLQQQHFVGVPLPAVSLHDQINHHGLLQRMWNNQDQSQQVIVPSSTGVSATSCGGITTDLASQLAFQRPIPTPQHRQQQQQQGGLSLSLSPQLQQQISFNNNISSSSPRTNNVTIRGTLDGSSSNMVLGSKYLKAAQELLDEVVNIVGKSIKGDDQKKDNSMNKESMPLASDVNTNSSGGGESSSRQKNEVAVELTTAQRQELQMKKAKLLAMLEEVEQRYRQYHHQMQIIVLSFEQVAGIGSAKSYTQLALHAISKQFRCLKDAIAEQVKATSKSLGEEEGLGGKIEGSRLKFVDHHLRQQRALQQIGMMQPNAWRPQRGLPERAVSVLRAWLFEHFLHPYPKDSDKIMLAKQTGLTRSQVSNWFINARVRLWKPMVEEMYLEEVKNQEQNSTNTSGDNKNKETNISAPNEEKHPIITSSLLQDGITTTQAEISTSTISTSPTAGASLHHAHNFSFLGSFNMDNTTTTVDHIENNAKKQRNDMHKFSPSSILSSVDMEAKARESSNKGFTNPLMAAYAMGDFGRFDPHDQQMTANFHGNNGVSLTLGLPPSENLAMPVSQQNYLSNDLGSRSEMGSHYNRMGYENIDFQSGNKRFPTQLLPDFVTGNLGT
T2 chain 2: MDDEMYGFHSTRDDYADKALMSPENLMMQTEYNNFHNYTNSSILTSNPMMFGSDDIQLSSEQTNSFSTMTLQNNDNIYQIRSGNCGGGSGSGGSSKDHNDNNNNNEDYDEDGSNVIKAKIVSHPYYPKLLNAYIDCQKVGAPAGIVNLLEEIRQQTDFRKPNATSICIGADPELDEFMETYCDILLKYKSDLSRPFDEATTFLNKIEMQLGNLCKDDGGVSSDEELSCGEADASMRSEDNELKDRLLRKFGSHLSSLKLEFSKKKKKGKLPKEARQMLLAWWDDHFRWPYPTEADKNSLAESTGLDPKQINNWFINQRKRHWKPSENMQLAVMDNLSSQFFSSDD

StBEL-05 [3] = target: T3, StBEL-05 (Solanum tuberosum); experiment: cell_activity; details: tobacco protoplasts, GUS reporter
T3 chain: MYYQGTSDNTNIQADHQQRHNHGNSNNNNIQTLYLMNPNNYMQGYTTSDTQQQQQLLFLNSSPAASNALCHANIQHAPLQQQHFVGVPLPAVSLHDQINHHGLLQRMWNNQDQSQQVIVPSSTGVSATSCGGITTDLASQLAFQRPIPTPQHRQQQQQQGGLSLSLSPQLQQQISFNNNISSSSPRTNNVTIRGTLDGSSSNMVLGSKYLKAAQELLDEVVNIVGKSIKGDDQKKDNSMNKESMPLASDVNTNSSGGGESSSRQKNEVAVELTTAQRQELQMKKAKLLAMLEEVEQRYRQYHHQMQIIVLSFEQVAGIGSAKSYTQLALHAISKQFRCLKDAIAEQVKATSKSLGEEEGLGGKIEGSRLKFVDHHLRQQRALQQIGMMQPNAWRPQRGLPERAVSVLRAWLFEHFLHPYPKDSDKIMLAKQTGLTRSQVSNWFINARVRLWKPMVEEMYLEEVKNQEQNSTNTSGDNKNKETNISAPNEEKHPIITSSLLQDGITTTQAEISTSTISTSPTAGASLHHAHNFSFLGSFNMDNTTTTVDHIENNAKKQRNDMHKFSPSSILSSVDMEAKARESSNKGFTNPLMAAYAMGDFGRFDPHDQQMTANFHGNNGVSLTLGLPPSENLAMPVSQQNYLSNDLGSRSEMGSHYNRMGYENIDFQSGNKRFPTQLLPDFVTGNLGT

POTH1 [4] = target: T1, POTH1; experiment: EMSA; details: tags: GST fusion from pGEX-5X-2, GST cleaved by Factor Xa
StBEL-05 [5] = target: T3, StBEL-05; experiment: EMSA; details: tags: GST fusion from pGEX-5X-2, GST cleaved by Factor Xa
[6] = target: T2, StBEL-05/POTH1 heterodimer; experiment: EMSA; deduced consensus TGA(C/G)(T/A)TGAC; details: tags: GST cleaved by Factor Xa
[7] = target: T4, GAD:POTH1 fusion protein (full-length POTH1 fused to the GAL4 activation domain) (Solanum tuberosum, 35S-methionine labelled (in vitro translation)); experiment: co-immunoprecipitation of in vitro translated 35S-labelled proteins with anti-GAD antibodies, SDS-PAGE and autoradiography
T4 construct: In vitro transcribed/translated bait of the immunoprecipitation assay; no 35S label there; also called POTH1:GAD
T4 chain: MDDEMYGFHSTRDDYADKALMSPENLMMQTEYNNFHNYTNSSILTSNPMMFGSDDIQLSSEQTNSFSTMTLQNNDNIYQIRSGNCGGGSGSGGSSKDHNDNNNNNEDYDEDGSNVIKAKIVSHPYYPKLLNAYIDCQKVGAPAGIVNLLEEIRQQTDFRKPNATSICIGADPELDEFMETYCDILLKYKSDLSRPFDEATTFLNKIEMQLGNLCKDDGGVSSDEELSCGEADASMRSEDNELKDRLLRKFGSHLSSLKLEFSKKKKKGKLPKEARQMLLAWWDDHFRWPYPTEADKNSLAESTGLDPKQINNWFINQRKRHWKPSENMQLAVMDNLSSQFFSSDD
Method: (§1) In vitro binding experiments were performed as described by Ni et al., "PIF3, a Phytochrome-Interacting Factor Necessary for Normal Photoinduced Signal Transduction, is a Novel Basic Helix-Loop-Helix Protein," *Cell* 95:657-667 (1998), which is hereby incorporated by reference in its entirety. The full-length sequence for POTH1 was cloned into a pET17b/GAD fusion cassette and transcribed under the control of the T7 promoter. The BEL cDNAs were cloned into pGEM11Z vectors and were transcribed under the control of the T7 promoter. ^35S-methionine labeled bait and prey proteins were synthesized using the TnT in vitro transcription-translation kit (Promega) according to the manufacturer's protocols. Each 50 µl TnT reaction contained 2.0 µg of template plasmid DNA and […] (20 µCi) of labeled ^35S-methionine. The POTH1:GAD/BEL complex was immunoprecipitated with anti-GAD antibodies (Santa Cruz Biotechnology, CA). The proteins from the pellet (one-half the fraction) and for the prey (one-fourth of the reaction volume) were resolved on a 10% SDS-PAGE gel and visualized by autoradiography.

[8] = target: T5, GAD protein alone (GAL4 activation domain) (UniProt P04386 768-881, limits assumed); experiment: immunoprecipitation of in vitro translated 35S-labelled proteins with anti-GAD antibodies
T5 construct: domain: GAD; Negative control of the immunoprecipitation assay
T5 sequence (looked up): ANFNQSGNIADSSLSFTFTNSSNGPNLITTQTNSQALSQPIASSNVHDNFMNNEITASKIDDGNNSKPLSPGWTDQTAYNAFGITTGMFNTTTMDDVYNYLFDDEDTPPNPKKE
Method: as §1

ga20ox1 promoter reporter (980 bp) showed an activity (POTH1 [1]) of over 50 % repression, an activity [2] of 80 % repression and an activity (StBEL-05 [3]) of over 50 % repression.

B1: P1 binding site oligo (dsDNA)
DNA 1: TTGACTTGAC
DNA 2: GTCAAGTCAA
B1: binds (POTH1 [4]); binds (StBEL-05 [5]); binds [6].

B2: StBEL-30 protein synthesized in vitro from pGEM11Z (other)
chain: MATYFPSPNNQRDADQTFQYFRQSLPESYSEASNAPENMMVFMNYSSSGAYSDMLTGTSQQQHNCIDIPSIGATPFNTSQQEILSNLGGSQMGIQDFSSWRDSRNEMLADNVFQVAQNVQGQGLSLSLGSNIPSGIGISHVQSQNPNQGGGFNMSFGDGDNSQPKEQRNADYFPPDNPGRDLDAMKGYNSPYGTSSIARTIPSSKYLKAAQYLLDEVVSVRKAIKEQNSKKELTKDSRESDVDSKNISSDTPANGGSNPHESKNNQSELSPTEKQEVQNKLAKLLSMLDEIDRRYRQYYHQMQIVVSSFDVVAGEGAAKPYTALALQTISRHFRCLRDAICDQIRASRRSLGEQDASENSKAIGISRLRFVDHHIRQQRALQQLGMMQQHAWRPQRGLPESSVSVLRAWLFEHFLHPYPKDSDKIMLARQTGLTRSQVSNWFINARVRLWKPMVEEMYKEEAGDAKIDSNSSSDVAPRLATKDSKVEERGELHQNAASEFEQYNSGQILESKSNHEADVEMEGASNAETQSQSGMENQTGEPLPAMDNCTLFQDAFVQSNDRFSEFGSFGSGNVLPNGVSLTLGLQQGEGSNLPMSIETHVSYVPLRADDMYSTAPTTMVPETAEFNCLDSGNRQQPFWLLPSAT
modifications: 35S-methionine labelled (in vitro translation)
notes: BEL cDNA cloned into pGEM11Z under the T7 promoter; also called p11Z-30
B2: binds [7]; no binding [8].
